Reference: CN113845595A (FUZHOU MAIXIN BIOTECHNOLOGY DEV CO LTD, dated 2021)

Target: T1, GH蛋白 (垂体瘤组织中的内源GH) (human, UniProt P01241 27-217)
T1 construct: Endogenous antigen detected by immunohistochemistry in pituitary tumour samples; also called 人GH蛋白
Assay: immunohistochemistry on 9 pituitary tumour samples

T1 sequence (P01241 27-217 limits assumed): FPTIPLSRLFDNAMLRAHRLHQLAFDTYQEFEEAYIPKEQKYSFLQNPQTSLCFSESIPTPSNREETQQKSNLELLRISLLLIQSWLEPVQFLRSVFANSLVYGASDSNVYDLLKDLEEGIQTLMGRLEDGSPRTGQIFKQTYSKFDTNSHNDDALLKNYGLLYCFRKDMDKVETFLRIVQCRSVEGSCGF

B1: 抗GH蛋白单克隆抗体(9D5D2A9) (antibody, V domains shown)
VH: QVQLKESGPGLVAPSQSLSITCTVSGFSLTNYGIHWVRQPPGKGLEWLGLIWSGGSTKYNSALMSRLSISRDNSKSQVFLKMNSLQSDDTAMYYCVRDELYAYWGQGTLVTVSA
VL: DIVMTQSHKFMSTSVGDRVSITCKASQDVGPTVAWYQQKPGQSPKLLIYWASTRHTGVPDRFTGSGYGTDFTLTISNVQSEDLADYFCQQYSSYPFTFGSGTKLEIK
notes: also called GH单克隆抗体; CGMCC NO.22315
**Q.** Does B1 bind?
**A.** Result: binds
